Laboratory results as given in patent publication US20240116985A1, “STAPLED PEPTIDES AND METHODS THEREOF” (priority 2020, published 2024).
Starred links: 1 amine or outer side, 2 acyl side, 3 side chain; linkers in the order of their positions; H or OH if unused. Positions of bridges follow the written chain, without caps; N, C: chain ends. Non-standard residues stand in square brackets, D forms with d. Primed or numbered codes have the meaning given here. PyrS2″ = (S)-3-amino-1-((pent-4-en-1-yloxy)carbonyl)pyrrolidine-3-carboxylic acid (stapling residue), C=CCCCOC(=O)N1CC[C@@](N[*:1])(C(=O)[*:2])C1; B5(30) = 2-amino-2-(pent-4-en-1-yl)hept-6-enoic acid (2,2-bis(4-pentenyl)glycine, stitching residue), C=CCCCC(CCCC=C)(N[*:1])C(=O)[*:2]; B5(4) = 2,2-bis(4-pentenyl)glycine = 2-amino-2-(pent-4-en-1-yl)hept-6-enoic acid (stitching residue), C=CCCCC(CCCC=C)(N[*:1])C(=O)[*:2]; Phe(3-COOH) = N[C@@H](Cc1cccc(C(=O)O)c1)C(=O)O; Phe(2-CF3) = N[C@@H](Cc1ccccc1C(F)(F)F)C(=O)O; 2Nal = N[C@@H](Cc1ccc2ccccc2c1)C(=O)O; Bta = N[C@@H](Cc1csc2ccccc12)C(=O)O; Lys(iPr) = CC(C)NCCCC[C@H](N)C(=O)O; αAllylPro = C=CC[C@@]1(C(=O)O)CCCN1; hPhe = N[C@@H](CCc1ccccc1)C(=O)O; tBuAla = CC(C)(C)C[C@H](N)C(=O)O; 3Thi = N[C@@H](Cc1ccsc1)C(=O)O; Cha = N[C@@H](CC1CCCCC1)C(=O)O; S8 = C=CCCCCCC[C@](C)(N)C(=O)O; hSer = N[C@@H](CCO)C(=O)O

Each binder was assayed against full-length beta-Catenin (Uniprot ID P35222) (Homo sapiens (Human)) (UniProt P35222) (assay: fluorescence polarization competition; full-length beta-catenin, competitor 5FAM-TCF4(10-53) probe).
Target sequence in this assay (P35222 whole entry): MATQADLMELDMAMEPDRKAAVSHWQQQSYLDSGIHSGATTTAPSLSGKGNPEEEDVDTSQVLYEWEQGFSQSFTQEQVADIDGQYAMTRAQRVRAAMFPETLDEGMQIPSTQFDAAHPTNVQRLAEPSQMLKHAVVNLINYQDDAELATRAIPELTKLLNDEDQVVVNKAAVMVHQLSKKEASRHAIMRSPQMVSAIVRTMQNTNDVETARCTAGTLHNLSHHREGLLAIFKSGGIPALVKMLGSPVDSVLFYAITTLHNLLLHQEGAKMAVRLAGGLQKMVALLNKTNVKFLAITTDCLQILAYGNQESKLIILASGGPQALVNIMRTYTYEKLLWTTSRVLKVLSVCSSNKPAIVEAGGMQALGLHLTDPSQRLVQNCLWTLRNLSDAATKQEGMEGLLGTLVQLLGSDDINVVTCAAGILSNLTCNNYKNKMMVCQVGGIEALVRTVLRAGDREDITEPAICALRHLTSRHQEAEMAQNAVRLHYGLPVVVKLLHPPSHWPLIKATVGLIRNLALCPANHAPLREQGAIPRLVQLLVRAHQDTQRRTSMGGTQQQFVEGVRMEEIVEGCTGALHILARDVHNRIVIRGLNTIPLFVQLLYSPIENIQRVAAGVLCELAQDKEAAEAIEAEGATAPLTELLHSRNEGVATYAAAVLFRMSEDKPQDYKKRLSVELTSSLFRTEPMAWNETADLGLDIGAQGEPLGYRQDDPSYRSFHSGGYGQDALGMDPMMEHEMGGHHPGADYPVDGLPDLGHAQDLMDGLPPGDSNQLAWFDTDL

IC50 [µM] | Binder
4.48 | Ac-[αAllylPro]DA[B5(4)]DEAAFN[S8][hPhe][Bta]Q-NH2 (staple 1-4, 4-11; also: staple isomer composition, earlier-eluting HPLC peak) [I-442]
2.13 | Ac-[αAllylPro]DA[B5(4)]DEAAFN[S8][hPhe][Bta]Q-NH2 (staple 1-4, 4-11; also: staple isomer composition, later-eluting HPLC peak) [I-443]

These binders were tested against full-length beta-Catenin (Uniprot ID P35222) (Homo sapiens (Human)) (UniProt P35222) (assay: fluorescence polarization competition; 10 nM full-length beta-catenin + 10 nM 5FAM-TCF4(10-53) probe, peptide titrated 10 uM to 5 nM).
Target sequence in this assay (P35222 2-781 limits assumed): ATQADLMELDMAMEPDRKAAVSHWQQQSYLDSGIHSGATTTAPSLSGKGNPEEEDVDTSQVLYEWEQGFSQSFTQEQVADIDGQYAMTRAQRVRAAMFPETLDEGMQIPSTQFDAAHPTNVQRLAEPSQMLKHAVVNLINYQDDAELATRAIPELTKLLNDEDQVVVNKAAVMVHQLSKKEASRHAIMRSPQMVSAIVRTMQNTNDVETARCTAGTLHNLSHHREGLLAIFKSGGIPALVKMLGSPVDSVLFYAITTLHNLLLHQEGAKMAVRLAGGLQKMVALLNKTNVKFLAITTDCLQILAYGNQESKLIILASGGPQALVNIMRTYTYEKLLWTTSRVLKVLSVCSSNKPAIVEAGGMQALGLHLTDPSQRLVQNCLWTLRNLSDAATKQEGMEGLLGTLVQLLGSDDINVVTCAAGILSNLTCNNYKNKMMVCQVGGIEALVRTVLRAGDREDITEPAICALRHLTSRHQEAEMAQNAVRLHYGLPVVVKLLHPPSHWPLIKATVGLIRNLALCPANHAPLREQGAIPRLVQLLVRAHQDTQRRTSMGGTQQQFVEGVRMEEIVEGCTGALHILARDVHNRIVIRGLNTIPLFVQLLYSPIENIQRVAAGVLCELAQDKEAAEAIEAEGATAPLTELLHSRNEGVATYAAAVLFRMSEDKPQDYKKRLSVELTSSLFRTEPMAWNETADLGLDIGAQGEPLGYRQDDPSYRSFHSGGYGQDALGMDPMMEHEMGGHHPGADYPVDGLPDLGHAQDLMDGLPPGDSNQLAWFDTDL

Binder | IC50 [µM]
Ac-[αAllylPro]D[tBuAla][B5(4)]D[Phe(3-COOH)]QAFL[PyrS2″][Phe(2-CF3)][RbMeBztA]A-NH2 (staple 1-4, 4-11) [I-2459] | 0.056
Ac-[αAllylPro]N[Cha][B5(30)]DT[Lys(iPr)]AFL[PyrS2″]F[Bta]K-NH2 (staple 1-4, 4-11; not fully specified; printed as Ac-PL3-Asn-Cha-B5-Asp-Thr-iPrLys-Ala-Phe-Leu-PyrS2-Phe-BztA-Lys-NH2; also: staple -CH=CH- reduced to -CH2-CH2-) [I-2455] | 10
Ac-[αAllylPro]N[Cha][B5(4)]DT[Lys(iPr)]AFL[PyrS2″]F[Bta]K-NH2 (staple 1-4, 4-11) [I-2450] | 0.063
Ac-[αAllylPro]N[Cha][B5(30)]DQ[hSer]AFL[PyrS2″][3Thi][Bta]Q-NH2 (staple 1-4, 4-11; not fully specified; printed as Ac-PL3-Asn-Cha-B5-Asp-Gln-Hse-Ala-Phe-Leu-PyrS2-3Thi-BztA-Gln-NH2; also: staple -CH=CH- reduced to -CH2-CH2-) [I-2451] | 4.86
Ac-[αAllylPro]N[Cha][B5(30)]DT[hSer]AFL[PyrS2″]F[Bta]K-NH2 (staple 1-4, 4-11) [I-2449] | 10
Ac-[αAllylPro]N[Cha][B5(30)]DQ[Lys(iPr)]AFL[PyrS2″][3Thi][Bta]Q-NH2 (staple 1-4, 4-11; not fully specified; printed as Ac-PL3-Asn-Cha-B5-Asp-Gln-iPrLys-Ala-Phe-Leu-PyrS2-3Thi-BztA-Gln-NH2; also: staple -CH=CH- reduced to -CH2-CH2-) [I-2452] | 7.2
Ac-[αAllylPro]N[Cha][B5(30)]DT[hSer]AFL[PyrS2″]F[Bta]Q-NH2 (staple 1-4, 4-11; not fully specified; printed as Ac-PL3-Asn-Cha-B5-Asp-Thr-Hse-Ala-Phe-Leu-PyrS2-Phe-BztA-Gln-NH2) [I-2447] | 3.25

Further lines, results first:

IC50 [µM] | Binder
0.052 | Ac-[αAllylPro]D[tBuAla][B5(4)]D[Phe(3-COOH)]QAFL[PyrS2″][Phe(2-CF3)][SbMeBztA]A-NH2 (staple 1-4, 4-11) [I-2457]
0.075 | Ac-[αAllylPro]D[tBuAla][B5(4)]D[Phe(3-COOH)]QAFL[PyrS2″][Phe(2-CF3)][2Nal]A-NH2 (staple 1-4, 4-11) [I-2461]
10 | Ac-[αAllylPro]N[Cha][B5(30)]DT[hSer]AFL[PyrS2″]F[Bta]K-NH2 (staple 1-4, 4-11; not fully specified; printed as Ac-PL3-Asn-Cha-B5-Asp-Thr-Hse-Ala-Phe-Leu-PyrS2-Phe-BztA-Lys-NH2; also: staple -CH=CH- reduced to -CH2-CH2-) [I-2454]

What follows are binders tested against full-length beta-Catenin (Uniprot ID P35222) (Homo sapiens (Human)) (UniProt P35222) (assay: fluorescence polarization competition: full-length beta-catenin + 5FAM-TCF4(10-53) probe, peptide titrated).
Target sequence in this assay (P35222 whole entry): as the sequence (P35222 whole entry) above

EC50 [µM] | Binder
4.48 | Ac-[αAllylPro]DA[B5(4)]DEAAFN[S8][hPhe][Bta]Q-NH2 (staple 1-4, 4-11; also: staple isomer composition, earlier-eluting HPLC peak) [I-442]
2.13 | Ac-[αAllylPro]DA[B5(4)]DEAAFN[S8][hPhe][Bta]Q-NH2 (staple 1-4, 4-11; also: staple isomer composition, later-eluting HPLC peak) [I-443]
